According to patent US20230287082A1 (published 2023):

Biological target: T1, yeast surface displayed ΔB7-H6 (wild-type) (human, UniProt Q68D85 25-145)
T1 construct: also called wild-type ΔB7-H6 on yeast; not shown: Aga2p fusion partner of the pYD-derived vector
T1 sequence: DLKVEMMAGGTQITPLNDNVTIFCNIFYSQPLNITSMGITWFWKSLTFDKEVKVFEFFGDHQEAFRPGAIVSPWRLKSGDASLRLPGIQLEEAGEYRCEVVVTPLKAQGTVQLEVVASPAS
Test: yeast surface display, flow cytometry

binding result: binds
B1: human NKp30 (receptor, UniProt O14931 19-135, looked up)
chain: LWVSQPPEIRTLEGSSAFLPCSFNASQGRLAIGSVTWFRDEVVPGKEVRNGTPEFRGRLAPLASSRFLHDHQAELHIRDVRGHDASIYVCRVEVLGLGVGTGNGTRLVVEKEHPQLG
notes: Soluble analyte in BLI; also called recombinant NKp30; his-tagged NKp30 (Abcam)
